Results: article PMC3894786 (Cell, 2012)

Key:
Experiment in all cases: LUMIER with BACON
STK38 = STK38 (human, UniProt Q15208 1-465)
LCK = LCK (human, UniProt P06239 1-509)
FGFR3 = FGFR3 (human, UniProt P22607 23-806)
CDK6 = CDK6 (human, UniProt Q00534 1-326)
CDK6, sequence (Q00534 whole entry): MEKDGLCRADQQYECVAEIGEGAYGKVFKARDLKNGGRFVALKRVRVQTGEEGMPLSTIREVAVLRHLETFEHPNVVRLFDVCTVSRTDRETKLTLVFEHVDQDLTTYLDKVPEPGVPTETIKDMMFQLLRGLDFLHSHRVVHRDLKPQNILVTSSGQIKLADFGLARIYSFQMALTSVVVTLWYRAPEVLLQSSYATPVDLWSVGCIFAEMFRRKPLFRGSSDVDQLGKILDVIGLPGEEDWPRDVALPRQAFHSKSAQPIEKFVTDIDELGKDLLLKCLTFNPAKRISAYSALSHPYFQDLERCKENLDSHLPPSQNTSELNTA

STK38, sequence (Q15208 whole entry): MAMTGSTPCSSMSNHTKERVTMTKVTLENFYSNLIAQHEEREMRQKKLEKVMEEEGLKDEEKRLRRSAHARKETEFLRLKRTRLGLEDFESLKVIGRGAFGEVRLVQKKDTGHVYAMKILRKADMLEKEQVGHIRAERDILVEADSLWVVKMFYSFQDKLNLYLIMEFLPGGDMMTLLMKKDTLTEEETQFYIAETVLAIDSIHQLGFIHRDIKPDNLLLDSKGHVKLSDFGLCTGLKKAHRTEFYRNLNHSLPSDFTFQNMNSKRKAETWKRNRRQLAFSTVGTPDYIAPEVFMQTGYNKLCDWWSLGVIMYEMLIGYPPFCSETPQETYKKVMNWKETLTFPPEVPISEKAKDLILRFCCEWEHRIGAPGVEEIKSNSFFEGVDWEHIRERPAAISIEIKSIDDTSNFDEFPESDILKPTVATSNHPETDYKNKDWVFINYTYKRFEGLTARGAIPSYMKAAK
LCK, sequence (P06239 whole entry): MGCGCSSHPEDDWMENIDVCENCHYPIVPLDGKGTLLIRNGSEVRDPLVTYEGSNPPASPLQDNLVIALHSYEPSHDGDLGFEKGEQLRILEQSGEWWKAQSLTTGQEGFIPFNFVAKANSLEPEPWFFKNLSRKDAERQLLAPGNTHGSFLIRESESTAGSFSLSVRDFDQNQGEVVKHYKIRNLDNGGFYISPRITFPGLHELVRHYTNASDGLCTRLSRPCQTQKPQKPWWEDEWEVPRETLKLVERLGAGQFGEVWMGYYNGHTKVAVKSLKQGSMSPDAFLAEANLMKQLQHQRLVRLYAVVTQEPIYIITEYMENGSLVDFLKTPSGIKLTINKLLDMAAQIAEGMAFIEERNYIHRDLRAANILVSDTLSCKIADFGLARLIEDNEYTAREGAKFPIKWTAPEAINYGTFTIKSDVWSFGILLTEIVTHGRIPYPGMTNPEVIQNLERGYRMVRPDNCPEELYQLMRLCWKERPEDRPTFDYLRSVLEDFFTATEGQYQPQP
FGFR3, sequence (P22607 23-806): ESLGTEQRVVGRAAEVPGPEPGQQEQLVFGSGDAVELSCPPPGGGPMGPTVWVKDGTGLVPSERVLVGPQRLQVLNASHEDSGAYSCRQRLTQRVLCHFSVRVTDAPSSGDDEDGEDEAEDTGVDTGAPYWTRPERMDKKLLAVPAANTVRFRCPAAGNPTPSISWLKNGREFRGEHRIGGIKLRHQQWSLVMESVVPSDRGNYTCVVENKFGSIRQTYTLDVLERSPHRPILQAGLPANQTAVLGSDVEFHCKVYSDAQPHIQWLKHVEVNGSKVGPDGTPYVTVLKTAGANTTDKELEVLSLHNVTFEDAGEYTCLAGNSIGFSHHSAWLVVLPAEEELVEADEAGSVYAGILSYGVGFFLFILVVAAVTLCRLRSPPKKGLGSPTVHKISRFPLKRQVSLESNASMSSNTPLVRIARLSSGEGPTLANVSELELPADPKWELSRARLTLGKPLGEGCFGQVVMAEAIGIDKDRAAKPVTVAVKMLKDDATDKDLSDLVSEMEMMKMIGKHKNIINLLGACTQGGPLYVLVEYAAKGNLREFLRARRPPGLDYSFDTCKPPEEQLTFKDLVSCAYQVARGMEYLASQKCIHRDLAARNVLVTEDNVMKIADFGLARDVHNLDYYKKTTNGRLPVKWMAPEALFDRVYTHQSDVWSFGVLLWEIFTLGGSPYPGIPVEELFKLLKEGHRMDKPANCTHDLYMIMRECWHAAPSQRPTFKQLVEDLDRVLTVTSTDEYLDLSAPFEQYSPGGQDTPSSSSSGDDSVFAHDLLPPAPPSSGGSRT

B1: Renilla luciferase-tagged HSP90β (natural protein)
chain: not shown
STK38
  half-life of dissociation after 500 nM ganetespib: ~3 min
LCK
  half-life of dissociation after 500 nM ganetespib: ~3 min
FGFR3
  half-life of dissociation after 500 nM ganetespib: 29 min
CDK6
  half-life of dissociation after 500 nM ganetespib: ~3 min
